Laboratory results: patent US20210113678A1 (ENTEROME S A, published 2021)

What was measured:
[1] = target: T1, HLA-A*0201 molecule on human T2 cells (human); test: T2 cells expressing HLA-A*0201, anti-HLA-A2-PE, FACS
T1 construct: read out with anti-HLA-A2 antibody BB7.2-PE; also called HLA-A2

[2] = target: T1, HLA-A*0201 molecule on human T2 cells; test: as above; remark: listed apart in the source

| mean relative fluorescence intensity at 1.5625 µM peptide [1] | mean relative fluorescence intensity at 3.125 µM peptide [1] | mean relative fluorescence intensity at 6.25 µM peptide [1] | mean relative fluorescence intensity at 25 µM peptide [1] | mean relative fluorescence intensity at 50 µM peptide [1] | mean relative fluorescence intensity at 100 µM peptide [1] | Concentration of peptide that induces 20% of HLA-A2 expression [2] [µM] | In vitro binding affinity (relative to reference peptide HIV pol 589-597) [2] | Binder |
| --- | --- | --- | --- | --- | --- | --- | --- | --- |
| 5.3 % of HIV peptide | 0.9 % of HIV peptide | 19.7 % of HIV peptide | 65.4 % of HIV peptide | 62.5 % of HIV peptide | 77.6 % of HIV peptide | 12.6 | 2.5 | LMDLSTTPL (Fragment of human FOXM1) [FOXM1-H2] |
| 3 % of HIV peptide | 3.7 % of HIV peptide | 9.6 % of HIV peptide | 11.2 % of HIV peptide | 14.2 % of HIV peptide | 26.5 % of HIV peptide |  |  | WLPFGFILI (Fragment of human IL13RA2) [IL13RA2-H] |
| 8.6 % of HIV peptide | 15.3 % of HIV peptide | 26.6 % of HIV peptide | 38.1 % of HIV peptide | 40.4 % of HIV peptide | 50.2 % of HIV peptide | 4.1 | 0.3 | VLEELLWFI (Fragment of human TYMS) [TYMS-H] |

Further lines, the binder ahead of its results:

| Binder | mean relative fluorescence intensity at 1.5625 µM peptide [1] | mean relative fluorescence intensity at 3.125 µM peptide [1] | mean relative fluorescence intensity at 6.25 µM peptide [1] | mean relative fluorescence intensity at 25 µM peptide [1] | mean relative fluorescence intensity at 50 µM peptide [1] | mean relative fluorescence intensity at 100 µM peptide [1] | Concentration of peptide that induces 20% of HLA-A2 expression [2] [µM] | In vitro binding affinity (relative to reference peptide HIV pol 589-597) [2] |
| --- | --- | --- | --- | --- | --- | --- | --- | --- |
| LLLSAALSA (Fragment of human CHI3L1) [CHI3L1H] | -1.9 % of HIV peptide | 1 % of HIV peptide | 4.4 % of HIV peptide | 4.9 % of HIV peptide | 14.5 % of HIV peptide | 11.2 % of HIV peptide |  |  |
| AVFRVLIPV [EZH2-B2] | 0 % of HIV peptide | 0 % of HIV peptide | 0.5 % of HIV peptide | 74.8 % of HIV peptide |  | 112 % of HIV peptide | 8.3 | 1.7 |
| SMFRVLIGT (Fragment of human EZH2) [EZH2-H2] | 0 % of HIV peptide | 0 % of HIV peptide | 0 % of HIV peptide | 13.3 % of HIV peptide |  | 78.2 % of HIV peptide | 39.2 | 7.8 |
| RVSSYLVPI (Fragment of human FOXM1) [FOXM1-H] | 0 % of HIV peptide | 0 % of HIV peptide | 0 % of HIV peptide | 10.5 % of HIV peptide | 30.7 % of HIV peptide | 83.8 % of HIV peptide | 37.6 | 3.7 |
| LMDLSTTEV [FOXM1-B2] | 7.2 % of HIV peptide | 12.7 % of HIV peptide | 33.5 % of HIV peptide | 98.2 % of HIV peptide | 91.5 % of HIV peptide | 105 % of HIV peptide | 6.7 | 1.3 |
| RLSSYLVEI [FOXM1-B] | 0 % of HIV peptide | 0 % of HIV peptide | 0 % of HIV peptide | 7.6 % of HIV peptide | 21.3 % of HIV peptide | 47.5 % of HIV peptide | 46.7 | 4.6 |
